# From patent US20130052712
# Tested on: mussel adhesive protein fp-151
# Sequence (chain, as listed by the source): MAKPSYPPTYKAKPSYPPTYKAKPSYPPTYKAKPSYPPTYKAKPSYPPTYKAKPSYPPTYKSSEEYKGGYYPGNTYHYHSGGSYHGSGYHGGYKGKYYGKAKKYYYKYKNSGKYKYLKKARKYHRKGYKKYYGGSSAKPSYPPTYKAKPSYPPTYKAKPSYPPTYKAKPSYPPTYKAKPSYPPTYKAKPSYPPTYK
substance,measurement,value
alkaline phosphatase,"activity of alkaline phosphatase remaining on the nanofiber (conversion of pNPP, absorbance at 405 nm)",alkaline phosphatase is coated only on PCL/fp-151 nanofiber to exhibit the activity
